The record followed here is paper PMC3990580.

Test [1] concerns the target WT extracellular murine leptin receptor Fc (LepRec-Fc) chimera (murine) (UniProt P48356). Kind of test: SPR; BiaCore T200, CM5 chip; anti-mouse IgG1 amine-coupled (~2000 RU) captures LepRec-Fc from the concentrated supernatant (100-300 RU); leptin 1.25-60 nM as analyte; 25°C, HBS-EP buffer, 30 µl/min; 600 s association, 1000 s dissociation; global 1:1 Langmuir fit; mean of two experiments. In general terms: In SPR one partner is held on a chip, and binding of the other changes the refractive index at the surface.

Test [2] deals with Q223R extracellular murine leptin receptor Fc (LepRec-Fc) chimera (murine) (UniProt P48356). The description is as above.

In test [1], “Recombinant murine leptin (from UniProt P41160 22-167) (ligand)” registered a Kd of 0.0647 nM, a koff of 0.000121 s⁻¹ and a kon of 1.76e+06 M⁻¹ s⁻¹. In addition, in test [2], the Kd was 0.0843 nM, the koff was 0.000147 s⁻¹ and the kon was found to be 1.75e+06 M⁻¹ s⁻¹.

Usually Kd stands for the equilibrium constant for the complex coming apart. High values mean lower affinity, low ones higher affinity. By koff is commonly meant the rate constant with which the complex falls apart. Higher therefore signals fast dissociation. As a reminder, the kon is a measure of how fast the partners come together. Read a low kon as slower complex formation.
